Assay [1] deals with Rs-AFP1 (Raphanus sativus antifungal protein 1) (Raphanus sativus).
In assay [2] the target is Rs-AFP2 (Raphanus sativus antifungal protein 2) (Raphanus sativus).

As to trypsin (enzyme), the antifungal activity on Fusarium culmorum after digestion with the protease in assay [1] and in assay [2] was 10 fold in each case.
Take chymotrypsin (enzyme): the antifungal activity on Fusarium culmorum after digestion with the protease in assay [1] and in assay [2] was 10 fold each time.
Take “proteinase K (from UniProt P06873) (enzyme)”: the antifungal activity on Fusarium culmorum after digestion with the protease in assay [1] and in assay [2] was 10 fold each time.
Regarding pronase E (enzyme), the antifungal activity on Fusarium culmorum after digestion with the protease in assay [1] and in assay [2] was 10 fold throughout.

The record behind these values is patent publication US5824869.
